From article PMC11272076 (Journal of Experimental Botany, 2024)

T1: CLuc–CML24 (Arabidopsis thaliana, UniProt P25070 1-161)
T1 sequence: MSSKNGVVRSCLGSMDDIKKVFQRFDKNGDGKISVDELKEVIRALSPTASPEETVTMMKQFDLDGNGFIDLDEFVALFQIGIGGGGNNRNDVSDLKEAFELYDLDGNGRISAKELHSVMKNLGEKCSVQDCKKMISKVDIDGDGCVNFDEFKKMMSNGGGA

T2: dansylated CML13 (Arabidopsis thaliana, UniProt Q94AZ4 1-148, covalent dansyl label (site not stated))
T2 sequence: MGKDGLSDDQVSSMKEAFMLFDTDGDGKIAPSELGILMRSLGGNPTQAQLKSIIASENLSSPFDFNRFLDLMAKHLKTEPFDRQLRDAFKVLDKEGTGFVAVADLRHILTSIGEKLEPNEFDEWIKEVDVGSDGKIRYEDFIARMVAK

T3: dansylated CML14 (Arabidopsis thaliana, UniProt Q8VZ50 1-148, covalent dansyl label (site not stated))
T3 sequence: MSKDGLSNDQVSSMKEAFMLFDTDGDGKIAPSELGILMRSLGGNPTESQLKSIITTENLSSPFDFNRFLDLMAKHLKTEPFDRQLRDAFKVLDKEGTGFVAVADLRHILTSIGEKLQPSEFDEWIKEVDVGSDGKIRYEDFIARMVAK

T4: CLuc–CML13 (Arabidopsis thaliana, UniProt Q94AZ4 1-148)
T4 sequence: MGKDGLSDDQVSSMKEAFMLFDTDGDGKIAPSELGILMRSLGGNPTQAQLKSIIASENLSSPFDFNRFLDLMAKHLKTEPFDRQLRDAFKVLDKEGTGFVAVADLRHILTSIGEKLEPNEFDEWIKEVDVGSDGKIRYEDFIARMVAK

T5: CLuc–CML14 (Arabidopsis thaliana, UniProt Q8VZ50 1-148)
T5 sequence: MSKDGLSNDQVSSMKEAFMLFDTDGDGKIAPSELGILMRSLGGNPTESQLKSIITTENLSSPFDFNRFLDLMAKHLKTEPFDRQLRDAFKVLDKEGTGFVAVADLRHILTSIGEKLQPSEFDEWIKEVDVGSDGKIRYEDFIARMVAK


What was measured:
[1] = target: T1, CLuc–CML24; test: split reporter
[2] = target: dansylated CaM (petunia, UniProt P62199 1-149, covalent dansyl label (site not stated)); test: steady-state dansyl fluorescence spectroscopy
[3] = target: T2, dansylated CML13; test: steady-state dansyl fluorescence spectroscopy
[4] = target: T3, dansylated CML14; test: steady-state dansyl fluorescence spectroscopy
[5] = target: T4, CLuc–CML13; test: split reporter
[6] = target: T5, CLuc–CML14; test: split reporter

Binder | fold signal above background (CML42 control) [1] [fold] | binding result [2] | binding result [3] | binding result [4] | fold signal above the CML42 control [5] [fold] | fold signal above the CML42 control [6] [fold]
myosin ATM2 neck region (residues 878–967), NLuc fusion (domain or fragment) RKKVLQGIVGLQKHFRGHLSRAYFQNMRKVTLVLQSYIRGENARRLFDTEAKFHADSVSEASTDELSAVIHLQSAVRGWLARKHFNSMQR | ~2 | – | – | – | – | –
LQGIVGLQKHFRGHLSRAYFQNM [ATM2-IQ1 synthetic peptide] | – | binds | – | – | – | –
LHGILRVQSSFRGYQARCLLKEL [ATM1-IQ1 synthetic peptide] | – | binds | binds | binds | – | –
myosin ATM1 neck region (residues 848–943), NLuc fusion (domain or fragment) RTLHGILRVQSSFRGYQARCLLKELKRGISILQSFVRGEKIRKEFAELRRRHKAAATIQSQVKSKIARIQYKGIADASVVIQSAIRGWLVRRCSGD | ~2 | – | – | – | ~35 | ~35
myosin VIII-A neck region (residues 828–930), NLuc fusion (domain or fragment) RNRTLHGILRLQSYFRGHQARCRLKELKTGITILQSFVRGEKMRKEYTELLQRHRASAAIQSHVKRRIASQQYKATVDASAVIQSAIRGELVRRCAGDIGWLS | ~2 | – | – | – | ~200 | ~200
